Tested on: MS2 coat protein
Test: apparent KD of MS2 coat protein; designed switch direction (-1 OFF switch, 1 ON switch): -1; higher = weaker reporter binding
How it was run: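 Apparent KD, taken as the median over clusters for each design, was obtained by curve-fitting normalised cluster fluorescence. Designed RNA switches had been transcribed on Illumina chips by stalled E. coli RNA polymerase and titrated with SNAP-549-labelled MS2 coat protein, doubling from 0.7 or 1.5 nM to 3 µM.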

[1] = input ligand: microRNA oligo, concentration not stated
[2] = Eterna round: R95, input ligand: microRNA oligo, concentration not stated
[3] = Eterna round: R95, input ligand: FMN 200 uM
[4] = Eterna round: R95, input ligand: none

| Sequence | apparent KD of MS2 coat protein (input ligand: FMN 200 uM) [nM] | apparent KD of MS2 coat protein (input ligand: none) [nM] | apparent KD of MS2 coat protein [1] [nM] | apparent KD of MS2 coat protein [2] [nM] | apparent KD of MS2 coat protein [3] [nM] | apparent KD of MS2 coat protein [4] [nM] |
| --- | --- | --- | --- | --- | --- | --- |
| AGUCCUGGAGUUAGGAUAUGGAGUAUCGCUGCGCUUCAGAAGGGACUUGAGGAUCACCCAAGUAGCCGUGAGGG [salish99_bmod_ex4_r4_006] (Eterna round: R97, puzzle: Brourd's mod of Exclusion 4) | 82.9 | 60.2 | – | – | – | – |
| AGUCGAAAGACCCACAUGGACAUGAGGAUCACCCAUGUACAAGCCUUUUGCUCGUCACUAUCGUCAAAAGACGAUAG [Omei Mir Offv1 A2] (Eterna round: R97, puzzle: Sensor, turn-off variant 1) | 30.8 | 41.8 | – | – | – | – |
| AGUCGGCGAGGAUAUACAUGAGGAUCACCCAUGUGAGAGAUAAAAGUGAGUUAGACAAGUAGAAGGCGCUGACA [JL Lego Mod 9] (Eterna round: R96, puzzle: Exclusion 3) | – | – | 46.4 | – | – | – |
| AGUCGGCGAGGAUAUACAUGAGGAUCACCCAUGUGAUAGAGUGCACGCGUACGUGUAUGUAGAAGGCGCUGACA [Mat - Exclusion 3 - Mod of JL D97] (puzzle: Exclusion 3) | – | – | – | 61.4 | – | – |
| AGUCGGUCAGGAUAUGCAAUCGUGGACAUGAGGAUCACCCAUGUAACGUGGGCCUGGUUUGUAGAAGGGACGAGCA [EX5 #87] (Eterna round: R97, puzzle: Exclusion 5) | 66 | 61.2 | – | – | – | – |
| AGUCGGUCAGGAUAUGCAAUUGUGGACAUGAGGAUCACCCAUGUAACGUGGGCCUGGUUUGUAGAAGGGACGUGCA [EX5 #89] (Eterna round: R97, puzzle: Exclusion 5) | 105 | 89 | – | – | – | – |
| AGUGCGUAUGUGAGGAUAUGCUGGUCCUUGGAUCGGCAGAAGGCACAUGAGGAUCACCCAUGUGGUGUCGUACA [salish99_Bmod_ex4_085] (puzzle: Brourd's mod of Exclusion 4) | – | – | – | 257 | 21.5 | 263 |
| AGUGUAGCAGGAUAUACAUGAGGAUCACCCAUGUUUCCGGGACCAGAGCAUCUGCCAUGUAGAAGGGCUGCCUU [Eternabot (L2) Solution 80] (Eterna round: R97, puzzle: Exclusion 3) | 275 | 225 | – | – | – | – |
| AGUGUGAGGCAGGAUAUGCAAUAUGUAAGUAAUGCAGAAGGGUCUACAUGAGGAUCACCCAUGUGUGCGGUUGA [Ex6 #10] (Eterna round: R97, puzzle: Exclusion 6) | 282 | 192 | – | – | – | – |
| AGUGUGUGGCAGGAUAUUCUAAUCGUGAGGAGGGAAGAAGGGUCUACAUGAGGAUCACCCAUGUAAGCGGUUGA [Ex6 #42] (Eterna round: R97, puzzle: Exclusion 6) | 259 | 140 | – | – | – | – |
| AGUGUGUGGCAGGAUAUUCUAAUGAUUAGGACAGAAGAAGGGUCUACAUGAGGAUCACCCAUGUAAGCGGUUGA [Ex6 #38] (Eterna round: R97, puzzle: Exclusion 6) | 211 | 82.3 | – | – | – | – |
| AGUGUGUUAGGAUAUCGGAUAUGCUGGAGGAGGUGGAUUUACGAGAAGGAACAUGAGGAUCACCCAUGUAGGAG [JR_Exclu4_Sub048] (puzzle: Exclusion 4) | – | – | – | 36.2 | – | – |
| AGUUACUACAAGCUUUGGGACAUGAGGAUCACCCAUGUUCGUCUUAUUGUAGUAGGUACGCUGACGUACCUACUACA [Mat - Sensor v3 - turn-off var 1 - JL Mod - D7] (puzzle: Sensor v3, turn-off variant 1) | – | – | – | 39.6 | 14.8 | 13.8 |
| AGUUGGCAAGGAUAUACAUGAGGAUCACCCAUGUGAAAUUAUAGUGAGGAAAUGAAAAGUAGAAGGUGCUGACA [Mod of Mat 3 - Jieux - Exclusion 3] (Eterna round: R97, puzzle: Exclusion 3) | 114 | 30.9 | – | – | – | – |
| AGUUGGCGAGGAUAUACAUGAGGAUCACCCAUGUGAAAUUAAAGUGAGGAAAUGAAAAGUAGAAGGCGCUGACA [Mat - Exclusion 3 - Mod of Salish D56] (puzzle: Exclusion 3) | – | – | – | 31.7 | 277 | 46.7 |
| AGUUGGCGAGGAUAUACAUGAGGAUCACCCAUGUGAAAUUAAAGUGAGGAAAUGAAAAGUAGAAGGCGCUGACA [Mod of Mat - Jieux - Exclusion 3] (Eterna round: R97, puzzle: Exclusion 3) | 686 | 67.7 | – | – | – | – |
| AGUUGGCGAGGAUAUACAUGAGGAUCACCCAUGUGAAUAAUAAUAGUGAGGAAGAAAAGUAGAAGGCGCUGACA [Mat - Exclusion 3 - Mod of Salish D35] (puzzle: Exclusion 3) | – | – | – | 46.1 | – | – |

| Sequence | apparent KD of MS2 coat protein (input ligand: FMN 200 uM) [nM] | apparent KD of MS2 coat protein (input ligand: none) [nM] | apparent KD of MS2 coat protein [1] [nM] | apparent KD of MS2 coat protein [2] [nM] | apparent KD of MS2 coat protein [3] [nM] | apparent KD of MS2 coat protein [4] [nM] |
| --- | --- | --- | --- | --- | --- | --- |
| AGUUGGCGAGGAUAUACAUGAGGAUCACCCAUGUGAGAGAGACUAGUGAGGUCGAUUAGUAGAAGGCGCUGACA [Mat X3R4 m11] (Eterna round: R97, puzzle: Exclusion 3) | 455 | 29.3 | – | – | – | – |
| AGUUGGUCAGGAUAUUCUAUUAAUUACAUGAGGAUCACCCAUGUGAAUGGACAAGGGUGUGAAGAAGGGACUGGCG [Omei Ex5 A17c] (Eterna round: R97, puzzle: Exclusion 5) | 692 | 1780 | – | – | – | – |
| AGUUGUUGUUUCCGUUCUUACAUGAGGAUCACCCAUGUUUCUUGUCGUGCUCGCGUUGCUCGUCAGACUUCCUGUUG [salish99_TOv1_r3_066] (puzzle: Sensor v3, turn-off variant 1) | – | – | – | 93.1 | 77.3 | 121 |
| AUAAAAGAGUUAGGAUAUCGGAAAGGAAGUGUACGAGAAGGAACGGUAUCCUCGGAAAGACAUGAGGAUCACCCAUGUAGAAAA [PowerStrip EXNG 1.6] (Eterna round: R96, puzzle: Exclusion NG 1) | 34.9 | 35.4 | 23.4 | – | – | – |
| AUAAAGAGGCUAGGAUAUACAUCGGUGCGAAAAGACGUAAUCCUUUGAACAUGAGGAUCACCCAUGUAGAAGGAGCAGACGGAA [Quriored] (Eterna round: R96, puzzle: Exclusion NG 2) | 44.5 | 17.4 | 11.7 | – | – | – |
| AUAAAUAAGGAGGAUAUCGAAUCGGAAACGAUUCGAGAAGGCCUAACAUGAGGAUCACCCAUGUUCCUUAAAUA [Mat - Exclusion 6 - Eli Mod - D63] (puzzle: Exclusion 6) | – | – | – | 17.6 | 30.2 | 20.8 |
| AUAAAUAGCGAGGAUAUCGUAUCGGAAACGAUACGAGAAGGCGUAACAUGAGGAUCACCCAUGUGUCCUCAAUA [Mat - Exclusion 6 - Eli Mod - D6] (Eterna round: R97, puzzle: Exclusion 6) | 801 | 87.2 | – | – | – | – |
| AUAAAUCAUGUAGGAUAUGCGUGGAGAAGCUAUGCAGAAGGACAUGAGGAUCACCCAUGUGCUUCCGUCUGAGUACAGACGGAA [Mat - Exclusion NG 1 - Mod of JL - D37] (Eterna round: R96, puzzle: Exclusion NG 1) | 129 | 86.5 | 99.4 | – | – | – |
| AUAAAUGAGGAGGAUAUCGAAUCGGAAACGAUUCGAGAAGGCCUAACAUGAGGAUCACCCAUGUUCCUUAAAUA [Mat - Exclusion 6 - Eli Mod - D64] (puzzle: Exclusion 6) | – | – | – | 25.3 | – | – |
| AUAAAUGAUGAGGAUAUCACUAGCGAUAGCUAGUGAGAAGGCAUCACAUGAGGAUCACCCAUGUGAUCCAAUAA [Mod6 Ex6/6-A4 by Brourd] (Eterna round: R97, puzzle: Exclusion 6) | 479 | 359 | – | – | – | – |
| AUAACAAGCUUUUUGUUCGUAGAACAUGAUGCUCGAGUCACAUGAGGAUCACCCAUGUCAUCCAGAUUGAUAGUUGA [JR_SV3TOV2_Sub060] (puzzle: Sensor v3, turn-off variant 2) | – | – | – | 51.2 | 39.5 | 40.3 |
| AUAACAUGCUGGUGAUCAUACAUGAGGAUCACCCAUGUAACAAGCUUUUUGUUCGUCUUAUAAUUUAAGAUCACCAG [Stov1/7-B2] (Eterna round: R97, puzzle: Sensor, turn-off variant 1) | 21.7 | 19.2 | – | – | – | – |
| AUAAUAAAGGAGGAUAUCGAUUCGGAAACGAAUCGAGAAGGUCUAACAUGAGGAUCACCCAUGUUCCUCAAAUA [Mat - Exclusion 6 - Eli Mod - D51] (puzzle: Exclusion 6) | – | – | – | 35.6 | 58 | 27.9 |
| AUAAUAAAGGAGGAUAUCGUUUCGGAAACGAAACGAGAAGGUCUAACAUGAGGAUCACCCAUGUUCCUCAAAUA [Mat - Exclusion 6 - Eli Mod - D52] (puzzle: Exclusion 6) | – | – | – | 33.3 | 66.4 | 53.5 |
| AUAAUAGUAGGAGGAUAUCGCAGGAUAUGGGCCUUAAAACAUAACAUGAGGAUCACCCAUGUGCACGAGAAGGCCUGGAAAAUA [Orsolavera] (Eterna round: R96, puzzle: Exclusion NG 2) | 25.7 | 18.6 | 11.5 | – | – | – |
| AUAAUAUAUGUAGGAUAUCUGCACGUGUAGUGCAGAGAAGGACAUGAGGAUCACCCAUGUAAUUAAGAUCAAUUAUUAAAUUAU [ENG1/4-B3] (Eterna round: R96, puzzle: Exclusion NG 1) | 83.8 | 38.1 | 35.5 | – | – | – |
| AUAAUAUAUGUAGGAUAUCUGCACGUUUAGUGCAGAGAAGGACAUGAGGAUCACCCAUGUAAUUAAGAUCAAUUAUUAAAUUAU [ENG1/4-B2] (Eterna round: R96, puzzle: Exclusion NG 1) | 59.5 | 40.8 | 29.5 | – | – | – |

— the supplement of paper PMC9170038
